This experiment addresses Hsp60 (chaperonin 60) of human Caco-2 cells (human) (UniProt P10809). Briefly: cell-based or functional assay.

Chain of Hsp60 (chaperonin 60) of human Caco-2 cells (human) (P10809 27-573): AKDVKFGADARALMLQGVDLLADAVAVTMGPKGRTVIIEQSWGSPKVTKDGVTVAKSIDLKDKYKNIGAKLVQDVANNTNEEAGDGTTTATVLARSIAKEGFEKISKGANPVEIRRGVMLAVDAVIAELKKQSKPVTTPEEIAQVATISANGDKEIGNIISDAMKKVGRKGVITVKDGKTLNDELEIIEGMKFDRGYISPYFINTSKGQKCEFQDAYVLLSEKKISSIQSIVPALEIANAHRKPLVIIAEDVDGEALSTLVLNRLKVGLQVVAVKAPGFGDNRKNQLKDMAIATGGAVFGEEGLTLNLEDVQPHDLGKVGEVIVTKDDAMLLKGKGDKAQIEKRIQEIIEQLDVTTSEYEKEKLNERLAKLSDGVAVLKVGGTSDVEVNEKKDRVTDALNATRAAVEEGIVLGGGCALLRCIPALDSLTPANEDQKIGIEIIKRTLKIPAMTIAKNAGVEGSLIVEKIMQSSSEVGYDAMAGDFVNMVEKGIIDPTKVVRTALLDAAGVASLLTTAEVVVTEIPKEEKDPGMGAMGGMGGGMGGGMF

In turn, “Listeria adhesion protein (LAP) on L. monocytogenes F4244 (WT) bacteria (ligand)” had an IKK-β protein expression level, shRNA vector control Caco-2 cells infected with the WT strain, increase over uninfected of 54% and a p65 protein expression level, shRNA vector control Caco-2 cells infected with the WT strain, increase over uninfected of 62%.
